pKd: −log10 of the molar value. Where two headings read alike, the source gives them in different places.
Columns and labels:
[1] = target: BiP-His6 (WT-BiP, aa 19-637) (human) (UniProt P11021); assay: BLI
[2] = target: BiP-His6 (WT-BiP, aa 19-637) (human) (UniProt P11021); assay: BLI; remark: listed apart in the source

BiP-His6 (WT-BiP, aa 19-637) (human), sequence (P11021 19-637): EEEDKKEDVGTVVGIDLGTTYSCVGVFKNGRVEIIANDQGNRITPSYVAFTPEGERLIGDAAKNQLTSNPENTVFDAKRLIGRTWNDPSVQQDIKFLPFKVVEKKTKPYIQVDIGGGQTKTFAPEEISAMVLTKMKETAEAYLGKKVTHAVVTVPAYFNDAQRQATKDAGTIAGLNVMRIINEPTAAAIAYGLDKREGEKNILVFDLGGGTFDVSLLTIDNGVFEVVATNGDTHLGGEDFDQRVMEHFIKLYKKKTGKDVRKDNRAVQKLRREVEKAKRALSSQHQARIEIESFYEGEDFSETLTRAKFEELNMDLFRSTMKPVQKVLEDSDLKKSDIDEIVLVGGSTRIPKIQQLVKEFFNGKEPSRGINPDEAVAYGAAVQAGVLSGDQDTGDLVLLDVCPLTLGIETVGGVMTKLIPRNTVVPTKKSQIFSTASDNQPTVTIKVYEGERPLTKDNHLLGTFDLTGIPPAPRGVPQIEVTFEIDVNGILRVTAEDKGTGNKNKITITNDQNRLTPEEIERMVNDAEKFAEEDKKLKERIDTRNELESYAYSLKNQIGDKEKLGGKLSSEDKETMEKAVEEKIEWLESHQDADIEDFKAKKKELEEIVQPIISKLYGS

pKd [1]: 4.99
pKd [2]: 4.74
Substance: E234G-HYPE (aa 102-458) (from UniProt Q9BVA6) (enzyme)
